Reference: the DeepSol protein solubility set

Assay: soluble on expression in E. coli; label from the status in PepcDB or PDB records

| Sequence | soluble on expression in E. coli |
| --- | --- |
| MGSDKIHHHHHHMIRREDYQYLRKLNDFRYFSIEQFDKIVGQMEFRKAKKDHILFFEGDKRDKLFLVTSGYFKVEQSDQSGTFMYTDFIRHGTIFPYGGLFTDDYYHFSVVAMTDVTYFYFPVDLFEDYSLENRLQMKHLYSKMSKLLELHELRVRNLITSSASSRVIQSLAILLVEMGKDSDTLPFQLTTTDIAQISGTTRETVSHVLRDLKKQELITIKGKYLTYLDKDYFLQYTK | not soluble |
| DPVFLDIFKSDKEDYEQRLRGAIREELNAFWQAKQPMIGLYLGEAMVGVACINSPDETLASDRFWHWRLKMLLNAGYFSTKQMMQKEHTVLAAVPLKIFHFLSFIAVHPLHQQHGFGHYLMAAVNTVLDEHPDSEGVAVYATSGKFKEFFKQVDYHTVKEVTVGNV | not soluble |
| MARRQTSSNGAGETRENLLRLAARIFSAQGYSGTTMRSIAQQAGIETASIYYHFPSKEDLVDEVMEIGATAIIQHMTERIEALGDGATAEERFRAAVLGQMAGMVKHGEYTLASSSLIEQLPEKVRERQSKRRESYQKLWAGLLEDLRAEGRLRSDVDLHLARMFILGSVQSIRYWFNPRKGSLEKVAAQLCDLFFEGVGQRG | soluble |
| MNVLKQQITASIAKDIAFRLGAELNDEEADIFADGYNAAMLQNCNVVTSGKPLTITLPDTSSKAFWSSTGKNETFHPETYKRQVKEAIERSCVIAGIGVEVK | not soluble |
| MEKNDIFVVIPAYNEEKMIKNTLINLKSHGYENIIVVDDGSRDNTSKIAISEEVIVCKHIINRGLGGALKTGLKCAVKYNPKVIVTFDADGQHDPEDIFKVSEPILEDSFDVVVGSRLIDENELKNMPLIKKIGNWGLNFITYLMGGRMVTDSQGGLRAFSYDAAEIVSKQLKSNRYEVSSEFIVLFKKNNLKFKEVPIKTIYTEYSMARGTNVITGFKILFKLLIQKLILEHHHHHH | soluble |
| NGLLYKRWVKQRAEDVEKWSGGRLGYVHIQSMGDGSFRTVYSDILGKYNNCDGIVIDTRFNGGGRLHEDIEILFSGQKYFTQVVRGREACDMPSRRWNKPSIMLQCEANYSNAHGTPWVYKHQNIGKLVGMPVPGTMTSVSWETLQDPSLVFGIPIIGYRLPDGSYLENTQLEPDIKVANSPETIVKGEDTQLKMAVDELLKEIDSRKK | not soluble |
| MSFGYLIATSQPCELLTKSRGETFSLIMDKMDLWIYFRFCEGNIYTIRKNETESCLTERGGEWLKHIYEFNRGSFIFSYVLLKKRESEENFTEIVLKSIKNNKILTVKVRSGLHFDLRNIYRIEM | not soluble |
| MKIVIIGSGLAGLSAGYRLCKSDEVIIFEKDPDIGGMSASYSIENEGKKYFIEKYYHHIFRSDSELLALIKELGLEKQMLWLKGKNAYFVDGKNYPMNTPVEILHFSPLSILDLAKLGMLVLRIKLIKDTAPYDRIKAKEWILDTAGKSVYENFFAPLMKSKFGDNAENVSAAWVIGRVKIRSDRGAEGEKLGYMRGGFNSLIEALAGEITANGGEIRTDREVTEIVIKANAVQGVKVNGDFIPCDAVISTAEPAVLDAITGGKLGDLHETLKSIRYQGTACALIGLDRSLMEDGNYWLNIKA | not soluble |
| MVQPDDVLLGRYKIRFDIGPGRIGRIFAVLDQQDQSRSRVKVIKVLPMVAGEQFLDDPQTYNEFDFLNHLRGTIGVPNIIQHFQVGRERVMMMDKYLATLEQFRTRCDDRRISDLNIIKIAVRLVNVLEAIHQKGVIHRDLKTTNVMIRSRGQSEVNLVLIDYGLSTFNGTPPRALAPDAKSPEIMFRGHTHVSPALEEGLKADAVDDLQMLAIMLIWCSAYHPFGPIGQESSRKKAEFITNPVKYVKGRPFLRPLMTAIMAQPRGTRPNYQAILDAAAGPFPIDDIRDSLKTEISLLGVRFL | not soluble |
| MSLKYKNLFFDLDDTIWAFSRNARDTFEEVYQKYSFDRYFDSFDHYYTLYQRRNTELWLEYGEGKVTKEELNRQRFFYPLQAVGVEDEALAERFSEDFFAIIPTKSGLMPHAKEVLEYLAPQYNLYILSNGFRELQSRKMRSAGVDRYFKKIILSEDLGVLKPRPEIFHFALSATQSELRESLMIGDSWEADITGAHGVGMHQAFYNVTERTVFPFQPTYHIHSLKELMNLLEGHHHHPPLIRIRAPSTSLRPHSSTTTTTTEIRLLTKPERKLSWLLPPLSNN | soluble |
| SLRITRIRLYKTDLPYVDGSYGWGAGNAITVARASVVVIDTDAGLQGCGEFTPCGENYMIAHSEGVDAFARLAAPQLLGQDPRQVARMERLMDHLVQGHGYAKAPFDAAFWDILGQATGQPVWMLLGGKLCDGAPMYRVAPQRSEAETRAELARHRAAGYRQFQIKVGADWQSDIDRIRACLPLLEPGEKAMADANQGWRVDNAIRLARATRDLDYILEQPCRSYEECQQVRRVADQPMKLDECVTGLHMAQRIVADRGAEICCLKISNLGGLSKARRTRDFLIDNRMPVVAEDSWGGEIASAAVAHFAASTPEEFLINSTDLMNYNTRSTGLGGPTVHQGRLYASDTPGLGVTPDFNSLGAPVADWALP | not soluble |
| HLPETIYVIRKGDMVIRPKYDEYQQTNGTEIIRFDQTRKESPFKVQRIIERSCKFYGNNYISKKAETNRITGISSKPPILLTPLFPTYFFPTHSDRQEENIWINMHYIENVKELKNRKSKIIFANGDSLTLNVSFHSLWHQYTNAIIYYYMVDKQSRMKSNNPEQPIDYNQSSLNIFEALSRYSLFEEN | not soluble |
| GMMNKPAPRELEVIRSTYITPHMLRITLGGAGLAGFPADQESAYIKLLFPQAGERPLMRTYTIRQQRDDEIDVDFVLHDTDGPASSWAKTAQVGELIQIGGPGLKKLINFEADWFLLAGDMTALPAISVNLAKLPNNAVGYAVIEVLSEADIQPLVHPEHVELHWVINPEADPEGRPLVERIAQLPWLAGEPAVWIACEFNSMRALRRHFKQAHALPKSHFYTSSYWKIGCNEGEHKLVKQEDEQLENGASV | soluble |
| MSLTTSYHIGNVVCAIIEREGRFLIARRPLGKHLARKWEFPGSKVETGESEAEALERELIEELGVRMEIVERLMPVEHCYADRSLRLIAFHCRIAAGAPNAGEHEELRWIDIGEADDYDFPEADLPILAEYRQKIAASVQSEGHHHHHH | not soluble |
| MKGIILAGGTGSRLYPITKVTNKHLLPVGRYPMIYHAVYKLKQCDITDIMIITGKEHMGDVVSFLGSGQEFGVSFTYRVQDKAGGIAQALGLCEDFVGNDRMVVILGDNIFSDDIRPYVEEFTNQKEGAKVLLQSVDDPERFGVANIQNRKIIEIEEKPKEPKSSYAVTGIYLYDSKVFSYIKELKPSARGELEITDINNWYLKRGVLTYNEMSGWWTDAGTHVSLQRANALARDINFGKQFNGE | not soluble |
| MAQITTTDANEFSSSAEFIPMRGFSNCHLQTMLPRLFRRQVKFTPYWQRLELPDGDFVDLAWSENPAQAQHKPRLVVFHGLEGSLNSPYAHGLVEAAQKRGWLGVVMHFRGCSGEPNRMHRIYHSGETEDASWFLRWLQREFGHAPTAAVGYSLGGNMLACLLAKEGNDLPVDAAVIVSAPFMLEACSYHMEKGFSRVYQRYLLNLLKANAARKLAAYPGTLPINLAQLKSVRRIREFDDLITARIHGYADAIDYYRQCSAMPMLNRIAKPTLIIHAKDDPFMDHQVIPKPESLPPQVEYQLTEHGGHVGFIGGTLLHPQMWLESRIPDWLTTYLEAKSCLEHHHHHH | not soluble |
| MSLSVPAAAPEDSVISAEETTTGSAVTNVQFSNEQVITENGKYKVSKLAPSLSFLPSNVELCCSVDAKSGYALCCDTDNVYVWPFLSSETHPSFVRIPLHDEEYESWSRPPLCCFTWPSVLERDLKSSPGLFLVNSRSGDIQFYEDVDTVSQVASFLTQTKRHKSVLKLRDGEYVENLINAEPAGILLSTNYGRVEFCTIRDANGKPFVSLKQTIIKCQVGIFSSMSKSKRVVSLKLGEISGKGERIVSILTQGGRYQVWNLSSVGNCYKKIDLNVQSEISQAVLEHFPLATSTLKLLDCHPLSGDSDAYLFLSFLAESNETHYLLSTIIVDEDTNSFAIFSTYRLNTYTRPLSDEFAPRLIVPTAYTKEHLPITSVYTLFSDAAVLTQTSSKLDSNYPFKRKWEDIIRFNKDMKVLGYDCNSSSLYITDGRTCALKLETFEKYENSDFQEIRFIKSHVDQYVYFGGQSTDEGHHHHHH | soluble |
| MSLDESKGFIEDSKLSVKTRMLYFSRDFRNNAPGSQSRVEETGLGFLGTFESGFTQGTVGFGVDAIGMLGLKLDSGKGRAGTGLFPTGADGRSQDDYSEGGGAVKMRISNTVLKFGDQFTALPVLATDDSRLLPEVAEGGLITSNEIDDLTVHAGHFTALNAQAQTYHDSLNLTEANVFGGTYAITDSLSTSVYYSRIEDHFRKWYGNINWALPISDKQGLVFDFNIYDTKSIGNNLTGAYVSKSDGTNELDNIAASLSAAYNVGAHTFTLAYQKVSGDGDYAYGVDGGGTVFLANSVARSDFNAEDEKSWQARYDLNFAEFGVPGLTFMTRYVSGTGATTRTTDSGKEWERDIDVKYVMQSGPAKDLSFRVRQATYRSGEGHHHHHH | soluble |
| MSLTYHIKTIGNNIDQIALDEIGEGFLVNQVSEAESDAFICRAQPFHDYEFSKALLAIGRAGAGFNNIPIEKCASKGIVVFNAPGGNANAVKELVLSMMIFGTRNLKPANKWLTGQKGDDNTIDGAVEHGKKAFSGSEISGKTLGVIGLGNIGSKVANDAQRLGMRVIGYDPYLSIEHAWNLSHHVKRVNDLAEIFEKADYITVHTPATDETTKMLNWKNLSKCKKGVILLNYARDEITDKEAVLKAIDEGIVRFFGTDFGSEKFYHHPQVFLTPHLGGSTAEASLNCTRMALDSVQTYLKTGEIINSVNFPRVLQELNTPYRVTLINKNVPNVVAQISLAVAAENINIANIVNRGQGDYAYTLLDLDEKDEGKLAALVSRFEAADNIIRVRLIENQSLEGHHHHHH | soluble |
| MCNTNMSVPTDGAVTTSQIPASEQETLVRPKPLLLKLLKSVGAQKDTYTMKEVLFYLGQYIMTKRLYDEKQQHIVYCSNDLLGDLFGVPSFSVKEHRKIYTMIYRNLVVVNQQESSDSS | soluble |
| QTTKRIRDQEKATALQTAEMVAEAPMTAAALESGKKQKELQSYTKRVQKITGTEFVVVMDMNGIRKTHPDPSKIGKKFRGGDESEVLKGHVHISTASGTLGKSQRAFVPVYAENGKQVGAVAVGITVNEIDEVISHSLRP | not soluble |
| MGSDKIHHHHHHMTVLIIGMGNIGKKLVELGNFEKIYAYDRISKDIPGVVRLDEFQVPSDVSTVVECASPEAVKEYSLQILKNPVNYIIISTSAFADEVFRERFFSELKNSPARVFFPSGAIGGLDVLSSIKDFVKNVRIETIKPPKSLGLDLKGKTVVFEGSVEEASKLFPRNINVASTIGLIVGFEKVKVTIVADPAMDHNIHIVRISSAIGNYEFKIENIPSPENPKTSMLTVYSILRTLRNLESKIIFG | soluble |
| MGSDKIHHHHHHMSDPGQPTLDQLRVFIAVVETGSFAAAARKLNRATSVISYTIANLEAQLGVTLFDRLSTKKPQLTLEGRTVLAEARSVSNGIDNLRAKVKSMLRGIEPEVHLALDVMLPASRVMDALKAFRKEFPSVSLRLYVEALGAVTQIVLNRTATVGISGPLDVDVLGLERIGVGFVQLVPVAAPDHPLAGGSHAPGAARSHIQLVLTDRSPLTQGHEFAVVGTHTWRLADLGAKHMLLKEGIGWGNMPEPMVRDDLADGRLVQLDLPDCKGGPYRLQAIYRTDTPPGPAGRFLIEHFQAQDAKTPTTAW | not soluble |
| MGEVQREKVAVIIGPTAVGKTKLSIDLAKALNGEIISGDSMQIYRTMDIGTAKVTKAEMDGIPHYMIDIKNPEDSFSVAEFQERVRKHIREITERGKLPIIVGGTGLYIQSVLFDYQFTDDAGDVIYREQREKLALERGVEYVHEKLQEVDPESAERIHANNVRRVIRALEIFHTTGEKMSEQIEKQEKELLYDVSLIGLTMDREMLYDRINLRVDLMMEQGLLEEVEGLYNRGIRDCQSIQAIGYKEIYDYFENRASLEDAVSQLKTNSRRYAKRQLTWFRNKMDVTWFDVTDGEKTSEILRYIEGKLQVKSNNSK | not soluble |
